According to US20190269750A1, “PHARMACEUTICAL COMPOSITION AND METHOD OF TREATING FEMALE SEXUAL DYSFUNCTIONS” ("IVIX" Ltd., priority 2016, published 2019):
No end group written: not given here.

Experiment: Distribution of tritium-labelled pentapeptide after intranasal administration
Assay type: in vivo
Details: rats, tritium label
Experimental: The study to determine how the medication of the invention is distributed through the body and reaches the brain was conducted on rats. Specially prepared rats were intranasally administered the pharmaceutical composition containing the pentapeptide of the invention radioactively-labelled with tritium. The animals were then euthanized at certain time intervals to be able to assess the biodistribution of the peptide in the brain and its transportation path.

pentapeptide of the invention radioactively-labelled with tritium: pentapeptide Thr-Lys-Pro-Arg-Pro (SEQ ID NO: 5) labelled with tritium, given intranasally in a pharmaceutical composition (TKPRP; also: tritium label, position not given here)
biodistribution: delivery to the brain: a significant part of the medication reached the brain undegraded | biodistribution: site of detection: detected in the olfactory bulbs and other parts of the brain
